What was measured:
[1] = target: SARS-CoV-2 full-length spike protein on pseudotyped lentivirus (SARS-CoV-2, UniProt P0DTC2 14-1273); assay: cell-based or functional assay
[2] = target: SARS-CoV-2 spike (S) protein, full length, wild type, expressed on the surface of CHO cells (SARS-CoV-2, UniProt P0DTC2 14-1273)

| Binder | IC50 (pseudoneutralization) [1] [mg/L] | IC80 (pseudoneutralization) [1] [mg/L] | median fluorescence fold over isotype [2] [fold over isotype] |
| --- | --- | --- | --- |
| anti-SARS-CoV-2 antibody 488 (antibody, V domains shown) VH: EVQLVESGGGLIQPGGSLRLSCAASGLTVSSNYMSWVRQAPGKGLEWVSVIYSGGSTYYADSVKGRFTISRDNSKNTLYLQMNSLRAEDTAVYYCARSPYGGNSWGQGTLVTVSS VL: not shown | 3.52 | > 50 | – |
| antibody 365 (antibody, V domains shown) VH: QVQLVESGGGVVQPGRSLRLSCAASGFNLSSYAMHWVRQASGKGLEWVSLISYDGSIKYYTDSVKGRFTVSGDNSKNTLFLQMNSLRPDDSALYYCVRGGVSGPNSFDMWGQGTTVTVSS VL: DVVMTQSPLSLPVTLGQPASISCRSSQSLVYSDGNTYVNWFQQRPGQSPRRLIYKVSIRASGVPDRFSGSGSGTDFALKISRVEAEDVGVYYCMQGTHWPVTFGQGTKVEIK | – | – | 10.7 |
| antibody 327 (antibody, V domains shown) VH: QVQLVESGGGVVQPGRSLRLSCAASGFNLSNYAMHWVRQASGKGLEWVSLISYDGSIKYYTDSVKGRFTVSGDNSKNTLFLQMNSLRPDDSALYYCVRGGVSGPNSFDMWGQGTTVTVSS VL: DVVMTQSPLSLPVTLGQPASISCRSSQSLVYSDGNTYVNWFQQRPGQSPRRLIYQVSIRASGVPDRFSGSGSGTDFALKISRVEAEDVGIYYCMQGTHWPVTFGQGTKVEIK | – | – | 9.54 |
| antibody 363 (antibody, V domains shown) VH: EVQLLESGGGLVQPGGSLRLSCAASGFTFSTYAMSWVRQAPGKGLEWVSAISGSGGSTYYADSVKGRFTISRDNSKNTLYLQMNSLRAEDTAVYYCASGYSPDYWGQGTLVTVSS VL: not shown | – | – | 16.8 |
| antibody 340 (antibody, V domains shown) VH: QVQLVQSGAEVKKPGASVKVSCKASGYTFTSYDINWVRQATGQGLEWMGWMNPNSGNTGYAQKFQGRVTMTRNTSISTAYMELSSLRSEDTAVYYCARGRYCTGGVCWGDWYFDLWGRGTLVTVSS VL: QSVLTQPPSVSGAPGQRVTISCTGSSSNIGAGYDVHWYQQLPGTAPKFLIYGNSNRPSGVPDRFSGSKSGTSASLAITGLQAEDEADYYCQSYDSSLSGPVFGGGTKLTVL | – | – | 33.2 |
| anti-SARS-CoV-2 antibody 555 (antibody, V domains shown) VH: QVQLVQSGAEVKKPGSSVKVSCKASGGTFSNYAISWVRQAPGQGLEWMGRIIPILGIANYAQKFQGRVTITADKSTSTAYMELSSLRSEDTAVYYCARGYYEARHYYYYYAMDVWGQGTAVTVSS VL: not shown | 0.38 | 1.4 | – |
| antibody 348 (antibody, V domains shown) VH: QVQLVQSGSELKKPGASVKVSCKASGYTFTSYAMNWVRQAPGQGLEWMGWINTNTGNPTYAQGFTGRFVFSLDTSVSTAYLQISSLKAEDTAVYYCARDHELPNTSSWFGHFEYWGQGTLVTVSS VL: not shown | – | – | 19.6 |
| antibody 329 (antibody, V domains shown) VH: EVQLVESGGGLVQPGGSLRLSCAASGFTFSSYWMHWVRQAPGKGLVWVSRINSDGSSTSYADSVKGRFTISRDNAKNTLYLQMNSLRAEDTAVYYCAREGIVATITLDYWGQGTLVTVSS VL: not shown | – | – | 9.41 |
| anti-SARS-CoV-2 antibody 419 (antibody, V domains shown) VH: QVQLVQSGAEVKKPGASVKVSCKASGYTFTSYYMHWVRQAPGQGLEWMGIINPSGGSTSYAQKFQGRVTMTRDTSTSTVYMELSSLRSEDTAVYYCARDWTQSSGYDYYYGLDVWGQGTTVTVSS VL: not shown | > 50 | > 50 | – |
| anti-SARS-CoV-2 antibody 483 (antibody, V domains shown) VH: QVQLQESGPGLVKPSETLSLTCTVSGGSISSYYWSWIRQPPGKGLEWIGYIYYSGSTNYNPSLKSRVTISVDTSKNQFSLKLSSVTAADTAVYYCARAPEEKSSEIGELVGWGWFDPWGQGTLVTVSS VL: not shown | > 50 | > 50 | – |
| antibody 323 (antibody, V domains shown) VH: QVQLVQSGAEVKKPGASVKVSCKVSGYTLTELSMHWVRQAPGKGLEWMGGFDPEDGETIYAQKFQGRVTMTEDTSTDTAYMELSSLRSEDTAVYYCATSTIFAPGGWFDPWGQGTLVTVSS VL: QSALTQPASVSGSPGQSITISCTGTSSDVGSYNLVSWYQQHPGKAPKLMIYEVSKRPSGVSNRFSGSKSGNTASLTISGLQAEDEADYYCCSYAGSTHYVFGTGTKVTVL | – | – | 20.6 |
| antibody 326 (antibody, V domains shown) VH: QITLKESGPTLVKPTQTLTLTCTFSGFSLNTSGVGVGWIRQPPGKALEWLSLIFWNDDKRYSPSLRSRLTITKDTSKNQVVLTMTNMDPVDTATYFCAHRNSGWSLKFDSWGQGSLVTVSA VL: DIQMTQSPSSVSASVGDRVTITCRARQGISSWLVWYQQKPGKAPKLLIFGASSLQSGVPSRFNASGTGTEFTLTISSLQPEDFATYYCQQADSFPITFGQGTRLEIK | – | – | 10.1 |
| anti-SARS-CoV-2 antibody 462 (antibody, V domains shown) VH: QVQLVESGGGVVQPGRSLRLSCAASGFTFSSYGMHWVRQAPGKGLEWVAVIWYDGNNKYYADSVKGRFTISRDNSKNTLYLQMNSLRAEDTAVYYCAKDPTWFGELPSYYYYGMDVWGQGTTVTVSS VL: not shown | > 50 | > 50 | – |
| antibody 331 (antibody, V domains shown) V domain 1: QITLKESGPTLVKPTETLTLTCSFSGFSLTKTGEAAGWIRQAPGRALEWVTVIFWDDDKRYSPSLQNRISVTKDTSKNQVVLRMTNVARFDTGTYFCWAMGGPGKEYFGQGTLVAVSS V domain 2: QSVLTQPPSVSGAPGQRVTISCTGTSSSIGPYSDVHWYQHVSGKAPRLLIFGNSNRPSGVPDRFSGSKSGTSASLVIAGLQAEDEADYYCQSYDSSLGEIYVFGTGTTVTVL | – | – | 20.1 |
| antibody 339 (antibody, V domains shown) V domain 1: QITLKESGPTLVKPTETLTLTCSFSGFSLTRTGEAAGWIRQAPGRALEWVTVIFWDDDKRYSPSLQSRLTVTKDTSKNQVVLTMTNVARFDTATYFCWAMGGPGKEYFGQGTQVAVSS V domain 2: QSVLTQPPSVSGAPGQRVTISCTGTSSSIGPYSDVHWYQHVSGKAPRLLIFGNSNRPSGVPDRFSGSKSGTSASLVIAGLQAEDEADYYCQSYDSSLGEIYVFGTGTTVTVL | – | – | 21.2 |
| antibody 343 (antibody, V domains shown) VH: QVQLVESGGDVVQPGTSLRLSCAASGFTFNNYGFHWVRQAPGKGLEWVALISSDGASTHYADSVKGRFTISRDSSVNTLYLQMNSLSLEDTAVYYCATGHCGTTCYYFDYWGQGTLVSVSS VL: DIQVTQSPSYLSASVGDRVTITCRASQTISTFLQWYQQKVGKAPKLLIYAASTLQSGVPSRFSGSGSGTDFSLTISSLQPEDFATYYCQQSYSAPLSFGGGTKVEIK | – | – | 1.12 |
| antibody 344 (antibody, V domains shown) VH: QVQLVESGGGVVQPGRSLRLSCAASGFTFSSYAMHWVRQAPGKGLEWMAVISYDGSNKYYADSVKGRFTISRDNSKNTLYLQMNSLRAEDTAVYFCAKGYSGSYYEPFDYWGQGTLVTVSS VL: not shown | – | – | 7.55 |
| antibody 351 (antibody, V domains shown) VH: HVQLVESGGGVVQPGRSLRLSCAASGFISRNYGMEWVRQAPGQGLEWVAGIWYDGSKKYYADSVKGRFTISRDTSKNTLFLQMDSLRAEDTAVFYCATATKTFCGGDCPPGGMDVWGQGTTVTVST VL: SYVLTQPPSVSVAPGKTAWITCVGNNIESESVHWYQQRPGQAPVLVIYYDSDRPSGIPERFFGSNSGNTATLTISRVEAGDEADYYCQVWDSNSDLMVFGGGTKLTVL | – | – | 1.06 |
| antibody 333 (antibody, V domains shown) VH: QVHLVESGGGVVLPGRSLRLSCSASQFIFSNYDMHWVRQSPGMGLEWVAGISSDGSDKYYIDSVRGRFTISRDNAKNTLFLQMNSLTTEDTAVYSCAKGGGKFGQYWGRGTLVTVSS VL: AIQMTQSPSSLSASVGDRVTITCRASQVIRNDLAWFQQKPGEAPNLLVYSASNLQSGVPSRFSGSGSGTDFTLTISSLQPEDFATYYCLQDYSYPYTFGQGTKLDMK | – | – | 1.27 |
| anti-SARS-CoV-2 antibody 506 (antibody, V domains shown) VH: QITLKESGPTLVKPTQTLTLTCTFSGFSLSTSGVGVGWIRQPPGKALEWLALIYWDDDKRYSPSLKSRLTITKDTSKNQVVLTMTNMDPVDTATYYCAHHSLSSIFDYWGQGTLVTVSS VL: QSALTQPASVSGSPGQSITISCTGTSSDVGDYNYVSWYQQHPGKAPKLMIYEVSNRPSGVSNRFSGSKSGNTASLTISGLQAEDEADYYCSSYTSSSTVFGGGTKLTVLG | > 50 | > 50 | – |
| anti-SARS-CoV-2 antibody 481 (antibody, V domains shown) VH: EVQLVESGGGLIQPGGSLRLSCAASGFTVSSNYMSWVRQAPGKGLEWVSVIYSGGSTFYADSVKGRFTISRDNSKNTLYLQMNSLRAEDTAVYYCAREVAGTYDYWGQGTLVTVSS VL: DIQMTQSPSSVSASVGDRVTITCRASQGISSWLAWYQQKPGKAPKLLIYAASSLQSGVPSRFSGSGSGTDFTLTISSLQPEDFATYYCQQANSFPGGTFGPGTKVDIKR | 17.2 | > 50 | – |
| antibody 324 (antibody, V domains shown) VH: QVQLQESGPGLVKPSGTLSLTCAVSGGSISSSNWWSWVRQPPGKGLEWIGEIYHSGSTNYNPSLKSRVTISVDNSKNQFSLKLSSVTAADTAVYYCARESVAAAGISYYYYGMDVWGQGTTVTVSS VL: EIVLTQSPGTLSLSPGERATLSCRASQSVSGRYLAWYQQKPGQAPRLLIYGASSRATGIPDRFSGSGSGTDFTLTISRLEPEDFAVYYCQHYGSSPGTFGQGTRLEIK | – | – | 9.44 |
| antibody 345 (antibody, V domains shown) VH: QVQLQESGPGLVKPSQTLSLTCTVSGGSISSGDYYWSWIRQPPGKGLEWIGYIYYSGSTYYNPSLKSRVTISVDTSKNQFSLKLSSVTAADTAVYYCARVGMVDNWNFEGNWFDPWGQGTLVTVSS VL: QSALTQPRSVSGSPGQSVTISCTGTSSDVGGYNYVSWYQQHPGKAPKLMIYDVSKRPSGVPDRFSGSKSGNTASLTISGLQAEDEADYYCCSYAGSVVFGGGTKLTVL | – | – | 11.7 |
